Measured values taken from paper PMC4186817, “Expression, Purification, and Structural Insights for the Human Uric Acid Transporter, GLUT9, Using the Xenopus laevis Oocytes System” (PLoS ONE, 2014).

Biological target: the molecule itself
Test: SDS-PAGE with silver stain and Western blot (anti-HA); eluate of the cobalt IMAC column (HRV 3C elution) from DDM-solubilised oocyte membranes, 8% SDS polyacrylamide gel

B1: human GLUT9b (SLC2A9b), recombinant (natural protein, UniProt Q9NRM0-2 1-511, looked up)
chain: MKLSKKDRGEDEESDSAKKKLDWSCSLLVASLAGAFGSSFLYGYNLSVVNAPTPYIKAFYNESWERRHGRPIDPDTLTLLWSVTVSIFAIGGLVGTLIVKMIGKVLGRKHTLLANNGFAISAALLMACSLQAGAFEMLIVGRFIMGIDGGVALSVLPMYLSEISPKEIRGSLGQVTAIFICIGVFTGQLLGLPELLGKESTWPYLFGVIVVPAVVQLLSLPFLPDSPRYLLLEKHNEARAVKAFQTFLGKADVSQEVEEVLAESRVQRSIRLVSVLELLRAPYVRWQVVTVIVTMACYQLCGLNAIWFYTNSIFGKAGIPPAKIPYVTLSTGGIETLAAVFSGLVIEHLGRRPLLIGGFGLMGLFFGTLTITLTLQDHAPWVPYLSIVGILAIIASFCSGPGGIPFILTGEFFQQSQRPAAFIIAGTVNWLSNFAVGLLFPFIQKSLDTYCFLVFATICITGAIYLYFVLPETKNRTYAEISQAFSKRNKAYPPEEKIDSAVTDGKINGRP
modifications: N-glycosylated (shift with PNGase; site not given)
notes: human GLUT9 isoform b (SLC2A9b), cDNA from Origene, amplified with primers from the start codon (ATGAAGCTCAGTAAAAAGGACCGAG) to the stop codon; differs from GLUT9a only in the N-terminal residues; Tag order from the N-terminus: 10xHis, FLAG, HRV 3C (PreScission) site, HA, then GLUT9b; The protein was eluted from the cobalt resin by HRV 3C cleavage, so only the HA tag stays on it (it is …)
B1: binds.
